B1: TPR t1 (parent)
chain: GACCAAUCUGCCCUCAGAGCUCGAGAACAUCUUCGGAUGCAGAGGAGGCAGGCUUCGGUGGCGCGAUAGCGCCAACGUCCUCAACCUCCAAUGCAUCCCACCACAUGAUGAUGCCUGAAGAGCCUUGGUUUUUUG

Variants of: B1
Assay: polymerase ribozyme fitness, log enrichment relative to wild type (log ratio); higher = more active; in vitro selection for triplet polymerase activity
Outline: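 To select mutant libraries of each subunit of a heterodimeric triplet polymerase ribozyme, built by PCR and transcribed, each was annealed with a biotinylated primer, partner subunit and triplets, then incubated frozen at −7 °C. Extended constructs were gel-excised, captured on streptavidin beads and amplified by RT-PCR, in one round carried out in triplicate. Illumina sequencing of input and output libraries kept genotypes with ≥10 input reads and ≥1 read per output. Fitness is the base-2 logarithm of genotype enrichment relative to wild-type enrichment, from inverse-variance-weighted replicate averages.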

| Variant | polymerase ribozyme fitness (log ratio) |
| --- | --- |
| GACCAAUCUGCCCUCAGAGCUCGAGAACAUCUUCGGAUGCAGAGGAGGCAGGCUUCGGUGGCGCGAUAGCGCCAACGUCCUCAACCUCCAAUGCAUCCCACCACAUGAUGAUGCCUGAAGAGCCUUGAUUAUUUG [G128A U131A] | -2.44 |
| GACCAAUCUGCCCUCAGAGCUCGAGAACAUCUUCGGAUGCAGAGGAGGCAGGCUUCGGUGGCGCGAUAGCGCCAACGUCCUCAACCUCCAAUGCAUCCCACCACAUGAUGAUGCCUGAAGAGCCUUAGGUUUUUG [G127A U129G] | -1.62 |
| GACCAAUCUGCCCUCAGAGCUCGAGAACAUCUUCGGAUGCAGAGGAGGCAGGCUUCGGUGGCGCGAUAGCGCCAACGUCCUCAACCUCCAAUGCAUCCCACCACAUGAUGAUGCCUGAAGAGCAUUGGUUAUUUG [C124A U131A] | 1.79 |
| GACCAAUCUGCCCUCAGAGCUCGAGAACAUCUUCGGAUGCAGAGGAGGCAGGCUUCGGUGGCGCGAUAGCGCCAACGUCCUCAACCUCCAAUGCAUCCCACCACAUGAUGAUGCCUGAAGAGCCUAGGUAUUUUG [U126A U130A] | -3.19 |
| GACCAAUCUGCCCUCAGAGCUCGAGAACAUCUUCGGAUGCAGAGGAGGCAGGCUUCGGUGGCGCGAUAGCGCCAACGUCCUCAACCUCCAAUGCAUCCCACCACAUGAUGAUGCCUGAAGAGCCUUCGCUUUUUG [G127C U129C] | -2.22 |
| GACCAAUCUGCCCUCAGAGCUCGAGAACAUCUUCGGAUGCAGAGGAGGCAGGCUUCGGUGGCGCGAUAGCGCCAACGUCCUCAACCUCCAAUGCAUCCCACCACAUGAUGAUGCCUGAAGAGCAUUGGUUUUUGG [C124A U134G] | 3.41 |
| GACCAAUCUGCCCUCAGAGCUCGAGAACAUCUUCGGAUGCAGAGGAGGCAGGCUUCGGUGGCGCGAUAGCGCCAACGUCCUCAACCUCCAAUGCAUCCCACCACAUGAUGAUGCCUGAAGAGCCUUAGUUUUUUU [G127A G135U] | -2.16 |
| GACCAAUCUGCCCUCAGAGCUCGAGAACAUCUUCGGAUGCAGAGGAGGCAGGCUUCGGUGGCGCGAUAGCGCCAACGUCCUCAACCUCCAAUGCAUCCCACCACAUGAUGAUGCCUGAAGAGCCUUGGUCUUUUG [U130C] | 0.0585 |
| GACCAAUCUGCCCUCAGAGCUCGAGAACAUCUUCGGAUGCAGAGGAGGCAGGCUUCGGUGGCGCGAUAGCGCCAACGUCCUCAACCUCCAAUGCAUCCCACCACAUGAUGAUGCCUGAAGAGCCUUGGUGUUUUG [U130G] | -0.361 |
| GACCAAUCUGCCCUCAGAGCUCGAGAACAUCUUCGGAUGCAGAGGAGGCAGGCUUCGGUGGCGCGAUAGCGCCAACGUCCUCAACCUCCAAUGCAUCCCACCACAUGAUGAUGCCUGAAGAGCCUUGGUAUUUUG [U130A] | -0.523 |
| GACCAAUCUGCCCUCAGAGCUCGAGAACAUCUUCGGAUGCAGAGGAGGCAGGCUUCGGUGGCGCGAUAGCGCCAACGUCCUCAACCUCCAAUGCAUCCCACCACAUGAUGAUGCCUGAAGAGCAUUCGUUUUUUG [C124A G127C] | 0.796 |
| GACCAAUCUGCCCUCAGAGCUCGAGAACAUCUUCGGAUGCAGAGGAGGCAGGCUUCGGUGGCGCGAUAGCGCCAACGUCCUCAACCUCCAAUGCAUCCCACCACAUGAUGAUGCCUGAAGAAACUUGGUUUUUUG [G122A C123A] | -0.665 |
| GACCAAUCUGCCCUCAGAGCUCGAGAACAUCUUCGGAUGCAGAGGAGGCAGGCUUCGGUGGCGCGAUAGCGCCAACGUCCUCAACCUCCAAUGCAUCCCACCACAUGAUGAUGCCUGAAGUGCCUUGGUUUUAUG [A121U U133A] | 1.83 |
| GACCAAUCUGCCCUCAGAGCUCGAGAACAUCUUCGGAUGCAGAGGAGGCAGGCUUCGGUGGCGCGAUAGCGCCAACGUCCUCAACCUCCAAUGCAUCCCACCACAUGAUGAUGCCUGAAGAGGCUUGGUUUUUUU [C123G G135U] | 1.4 |
| GACCAAUCUGCCCUCAGAGCUCGAGAACAUCUUCGGAUGCAGAGGAGGCAGGCUUCGGUGGCGCGAUAGCGCCAACGUCCUCAACCUCCAAUGCAUCCCACCACAUGAUGAUGCCUGAAGAGACUUGCUUUUUUG [C123A G128C] | -0.87 |
| GACCAAUCUGCCCUCAGAGCUCGAGAACAUCUUCGGAUGCAGAGGAGGCAGGCUUCGGUGGCGCGAUAGCGCCAACGUCCUCAACCUCCAAUGCAUCCCACCACAUGAUGAUGCCUGAAGAACCUUGGUUUUGUG [G122A U133G] | -0.871 |
| GACCAAUCUGCCCUCAGAGCUCGAGAACAUCUUCGGAUGCAGAGGAGGCAGGCUUCGGUGGCGCGAUAGCGCCAACGUCCUCAACCUCCAAUGCAUCCCACCACAUGAUGAUGCCUGAAGAGCGUUGCUUUUUUG [C124G G128C] | -0.216 |
| GACCAAUCUGCCCUCAGAGCUCGAGAACAUCUUCGGAUGCAGAGGAGGCAGGCUUCGGUGGCGCGAUAGCGCCAACGUCCUCAACCUCCAAUGCAUCCCACCACAUGAUGAUGCCUGAAGAGGCUUGGUGUUUUG [C123G U130G] | 1.48 |
| GACCAAUCUGCCCUCAGAGCUCGAGAACAUCUUCGGAUGCAGAGGAGGCAGGCUUCGGUGGCGCGAUAGCGCCAACGUCCUCAACCUCCAAUGCAUCCCACCACAUGAUGAUGCCUGAAGAGCCUUGGCUUUUUC [U129C G135C] | 0.513 |
| GACCAAUCUGCCCUCAGAGCUCGAGAACAUCUUCGGAUGCAGAGGAGGCAGGCUUCGGUGGCGCGAUAGCGCCAACGUCCUCAACCUCCAAUGCAUCCCACCACAUGAUGAUGCCUGAAGAGCCUUGGCUUUUUU [U129C G135U] | -0.0345 |
| GACCAAUCUGCCCUCAGAGCUCGAGAACAUCUUCGGAUGCAGAGGAGGCAGGCUUCGGUGGCGCGAUAGCGCCAACGUCCUCAACCUCCAAUGCAUCCCACCACAUGAUGAUGCCUGAAGAGCUAUGGUUUUUUG [C124U U125A] | 0.926 |
| GACCAAUCUGCCCUCAGAGCUCGAGAACAUCUUCGGAUGCAGAGGAGGCAGGCUUCGGUGGCGCGAUAGCGCCAACGUCCUCAACCUCCAAUGCAUCCCACCACAUGAUGAUGCCUGAAGAGCCGUGGUUUCUUG [U125G U132C] | -0.45 |
| GACCAAUCUGCCCUCAGAGCUCGAGAACAUCUUCGGAUGCAGAGGAGGCAGGCUUCGGUGGCGCGAUAGCGCCAACGUCCUCAACCUCCAAUGCAUCCCACCACAUGAUGAUGCCUGAAGAGUCUUGGAUUUUUG [C123U U129A] | 0.307 |
| GACCAAUCUGCCCUCAGAGCUCGAGAACAUCUUCGGAUGCAGAGGAGGCAGGCUUCGGUGGCGCGAUAGCGCCAACGUCCUCAACCUCCAAUGCAUCCCACCACAUGAUGAUGCCUGAAGAGCCUUGUCUUUUUG [G128U U129C] | -0.805 |
| GACCAAUCUGCCCUCAGAGCUCGAGAACAUCUUCGGAUGCAGAGGAGGCAGGCUUCGGUGGCGCGAUAGCGCCAACGUCCUCAACCUCCAAUGCAUCCCACCACAUGAUGAUGCCUGAAGAGGCUGGGUUUUUUG [C123G U126G] | -0.0102 |
| GACCAAUCUGCCCUCAGAGCUCGAGAACAUCUUCGGAUGCAGAGGAGGCAGGCUUCGGUGGCGCGAUAGCGCCAACGUCCUCAACCUCCAAUGCAUCCCACCACAUGAUGAUGCCUGAAGAGCGUAGGUUUUUUG [C124G U126A] | 1.15 |
